Measurements: paper PMC9352680, “A comprehensive thermodynamic model for RNA binding by the Saccharomyces cerevisiae Pumilio protein PUF4”
Numbering of substitutions follows the chain as printed. Numbers in names are those of the source.

T1: PUF4 RNA-binding domain (Saccharomyces cerevisiae, UniProt P25339 537-888)
T1 sequence: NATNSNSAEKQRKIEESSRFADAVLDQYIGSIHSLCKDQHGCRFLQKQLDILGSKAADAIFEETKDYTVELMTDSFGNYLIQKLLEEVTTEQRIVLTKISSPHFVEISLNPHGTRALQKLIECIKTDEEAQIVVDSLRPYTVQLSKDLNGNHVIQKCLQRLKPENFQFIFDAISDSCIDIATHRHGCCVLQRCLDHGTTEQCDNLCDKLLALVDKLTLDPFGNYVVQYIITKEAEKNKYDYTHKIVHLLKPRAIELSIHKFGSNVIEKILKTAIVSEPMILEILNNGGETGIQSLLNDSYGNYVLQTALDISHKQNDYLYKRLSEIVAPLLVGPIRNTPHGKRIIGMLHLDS

B1: Id_i_S2_P3E.5_K3.1_C3.3_[T-3A]_[C-2G]_[T-1C]_H3.1_A3.1_F3.1_T3.2 (ssRNA)
RNA: UUUGAUUAAUAUGAUAUCGUUCUUUCUAGCUGUAUAUAUAUUCUUUCUCGAUAUCAUAUUAAUCUUU
B2: Id_i_S2_P3E.7_K3.3_C3.3_[T-3A]_[C-2T]_[T-1G]_H3.3_A3.1_F3.1_T3.2 (ssRNA)
RNA: B1 RNA with G29U, C30G, U31A, G32C, U33A, A34C
B3: Id_i_S2_P3E.7_K3.3_C3.3_[T-3C]_[C-2A]_[T-1C]_H3.3_A3.1_F3.1_T3.2 (ssRNA)
RNA: B1 RNA with A28C, G29A, U31A, G32C, U33A, A34C
B4: Id_i_S2_P3E.5_K3.1_C3.3_[T-3A]_[C-2A]_[T-1C]_H3.1_A3.1_F3.1_T3.2 (ssRNA)
RNA: B1 RNA with G29A
B5: Id_i_S2_P3E.6_K3.2_C3.3_[T-3C]_[C-2T]_[T-1C]_H3.2_A3.1_F3.1_T3.2 (ssRNA)
RNA: B1 RNA with A28C, G29U, G32A
B6: Id_i_S2_P3E.7_K3.3_C3.3_[T-3G]_[C-2T]_[T-1A]_H3.3_A3.1_F3.1_T3.2 (ssRNA)
RNA: B1 RNA with A28G, G29U, C30A, U31A, G32C, U33A, A34C
B7: Id_i_S2_P3E.6_K3.2_C3.3_[T-3A]_[C-2T]_[T-1C]_H3.2_A3.1_F3.1_T3.2 (ssRNA)
RNA: B1 RNA with G29U, G32A
B8: Id_i_S2_P3E.6_K3.2_C3.3_[T-3C]_[C-2G]_[T-1C]_H3.2_A3.1_F3.1_T3.2 (ssRNA)
RNA: B1 RNA with A28C, G32A
B9: Id_i_S2_P3E.6_K3.2_C3.3_[T-3G]_[C-2G]_[T-1C]_H3.2_A3.1_F3.1_T3.2 (ssRNA)
RNA: B1 RNA with A28G, G32A
B10: Id_i_S2_P3E.7_K3.3_C3.3_[T-3A]_[C-2G]_[T-1C]_H3.3_A3.1_F3.1_T3.2 (ssRNA)
RNA: B1 RNA with U31A, G32C, U33A, A34C
B11: Id_i_S2_P3E.5_K3.1_C3.3_[T-3A]_[C-2T]_[T-1C]_H3.1_A3.1_F3.1_T3.2 (ssRNA)
RNA: B1 RNA with G29U
B12: Id_i_S2_P3E.7_K3.3_C3.3_[T-3C]_[C-2A]_[T-1G]_H3.3_A3.1_F3.1_T3.2 (ssRNA)
RNA: B1 RNA with A28C, G29A, C30G, U31A, G32C, U33A, A34C
B13: Id_i_S2_P3E.7_K3.3_C3.3_[T-3A]_[C-2T]_[T-1A]_H3.3_A3.1_F3.1_T3.2 (ssRNA)
RNA: B1 RNA with G29U, C30A, U31A, G32C, U33A, A34C
B14: Id_i_S2_P3E.7_K3.3_C3.3_[T-3C]_[C-2A]_[T-1A]_H3.3_A3.1_F3.1_T3.2 (ssRNA)
RNA: B1 RNA with A28C, G29A, C30A, U31A, G32C, U33A, A34C
B15: Id_i_S2_P3E.7_K3.3_C3.3_[T-3C]_[C-2T]_[T-1A]_H3.3_A3.1_F3.1_T3.2 (ssRNA)
RNA: B1 RNA with A28C, G29U, C30A, U31A, G32C, U33A, A34C
B16: Id_i_S2_P3E.6_K3.2_C3.3_[T-3C]_[C-2A]_[T-1C]_H3.2_A3.1_F3.1_T3.2 (ssRNA)
RNA: B1 RNA with A28C, G29A, G32A
B17: Id_i_S2_P3E.6_K3.2_C3.3_[T-3A]_[C-2G]_[T-1C]_H3.2_A3.1_F3.1_T3.2 (ssRNA)
RNA: B1 RNA with G32A
B18: Id_i_S2_P3E.6_K3.2_C3.3_[T-3A]_[C-2A]_[T-1C]_H3.2_A3.1_F3.1_T3.2 (ssRNA)
RNA: B1 RNA with G29A, G32A
B19: Id_i_S4_P3E.2_K3.1_C3.2_[C-2T]_[T-1G]_H3.1_A3.1_F3.1_T3.2 (ssRNA)
RNA: UUUGACAACUGAUCGUUCUUUCUUGUGUAUAUAUAUUCUUUCUCGAUCAGUUGUCUUU
B20: Id_i_S4_P3E.2_K3.1_C3.2_[C-2T]_[T-1C]_H3.1_A3.1_F3.1_T3.2 (ssRNA)
RNA: B19 RNA with G25C
B21: Id_ii_S4_P3E.4_K3.3_C3.2_[C-2G]_[T-1C]_H3.3_A3.1_F3.1_T3.2 (ssRNA)
RNA: B19 RNA with U24G, G25C, U26A, G27C, U28A, A29C
B22: Id_i_S4_P3E.3_K3.2_C3.2_[C-2T]_[T-1G]_H3.2_A3.1_F3.1_T3.2 (ssRNA)
RNA: B19 RNA with G27A
B23: Id_i_S4_P3E.4_K3.3_C3.2_[C-2T]_[T-1C]_H3.3_A3.1_F3.1_T3.2 (ssRNA)
RNA: B19 RNA with G25C, U26A, G27C, U28A, A29C
B24: Id_i_S4_P3E.3_K3.2_C3.2_[C-2T]_[T-1C]_H3.2_A3.1_F3.1_T3.2 (ssRNA)
RNA: B19 RNA with G25C, G27A
B25: Id_i_S4_P3E.2_K3.1_C3.2_[C-2T]_[T-1A]_H3.1_A3.1_F3.1_T3.2 (ssRNA)
RNA: B19 RNA with G25A

Target: T1, PUF4 RNA-binding domain
Test: Mg; RNA-MaP; 20 mM Na-HEPES pH 7.4, 30 mM KOAc, 0.75 mM MgCl2, 0.1% Tween-20, 5% glycerol, 0.1 mg/mL BSA, 2 mM DTT; 25 C; 0.0125-409.6 nM protein
Conditions: tags: N-His6-TEV cleaved; C-SNAP kept, Cy3B-labelled; label: tethered on chip by stalled RNA polymerase

Row | Binder | Kd [nM]
1 | B1 | 2.13
2 | B2 | 597
3 | B3 | 482
4 | B4 | 1.39
5 | B5 | 35
6 | B6 | 5.76
7 | B7 | 170
8 | B8 | 68.2
9 | B9 | 1300
10 | B10 | 429
11 | B11 | 1.7
12 | B12 | 610
13 | B13 | 708
14 | B14 | 222
15 | B15 | 214
16 | B16 | 68.5
17 | B17 | 528
18 | B18 | 105
19 | ACAAACAGGUAUAUAUAUAACAAAC (ssRNA) [Id_i_S3_P3E.6_K3.2_C3.3_[T-3A]_[C-2G]_[T-1G]_H3.2_A3.1_F3.1_T3.2] | 566
20 | ACAAACAAUAUAUAUAUAACAAAC (ssRNA) [Id_ii_S3_P3E.3_K3.2_C3.2_[C-2A]_[T-1A]_H3.2_A3.1_F3.1_T3.2] | 531
21 | ACAAACCUCUAUAUAUAUAACAAAC (ssRNA) [Id_i_S3_P3E.6_K3.2_C3.3_[T-3C]_[C-2T]_[T-1C]_H3.2_A3.1_F3.1_T3.2] | 219
22 | UCUCUUUGUAUGUUAUCUCUU (ssRNA) [Ic_S1_P4E.1_K4.1_C4.1_H4.1_A4.1_[A6G]_F4.1_T4.1] | 4.82
23 | UCUCUUAAUAUAUUAUCUCUU (ssRNA) [Ib_S1_P4E.1_K4.1_C4.1_H4.1_[T1A]_[G2A]_A4.1_F4.1_T4.1] | 564

Row | Binder | Kd [nM]
24 | ACAAACCAAACACUAUAUAACAAAC (ssRNA) [Id_i_S3_P3E.7_K3.3_C3.3_[T-3C]_[C-2A]_[T-1A]_H3.3_A3.1_F3.1_T3.2] | > 2300
25 | ACAAACGGUAUAUAUAUAACAAAC (ssRNA) [Id_ii_S3_P3E.3_K3.2_C3.2_[C-2G]_[T-1G]_H3.2_A3.1_F3.1_T3.2] | 550
26 | ACAAACAGUAUAUAUAUAACAAAC (ssRNA) [Id_i_S3_P3E.3_K3.2_C3.2_[C-2A]_[T-1G]_H3.2_A3.1_F3.1_T3.2] | 385
27 | UCUCUUCAUAUAUUAUCUCUU (ssRNA) [Ib_S1_P4E.1_K4.1_C4.1_H4.1_[T1C]_[G2A]_A4.1_F4.1_T4.1] | 487
28 | ACAAACACACACUAUAUAACAAAC (ssRNA) [Id_i_S3_P3E.4_K3.3_C3.2_[C-2A]_[T-1C]_H3.3_A3.1_F3.1_T3.2] | > 2300
29 | ACAAACGCACACUAUAUAACAAAC (ssRNA) [Id_ii_S3_P3E.4_K3.3_C3.2_[C-2G]_[T-1C]_H3.3_A3.1_F3.1_T3.2] | 1830
30 | ACAAACAUAACACUAUAUAACAAAC (ssRNA) [Id_i_S3_P3E.7_K3.3_C3.3_[T-3A]_[C-2T]_[T-1A]_H3.3_A3.1_F3.1_T3.2] | > 2300
31 | ACAAACAUCACACUAUAUAACAAAC (ssRNA) [Id_i_S3_P3E.7_K3.3_C3.3_[T-3A]_[C-2T]_[T-1C]_H3.3_A3.1_F3.1_T3.2] | 2250
32 | B19 | 1.47
33 | B20 | 0.82
34 | B21 | 30.3
35 | B22 | 4.75
36 | B23 | 202
37 | B24 | 68.1
38 | B25 | 4.77
39 | ACAAACGGAACACUAUAUAACAAAC (ssRNA) [Id_i_S3_P3E.7_K3.3_C3.3_[T-3G]_[C-2G]_[T-1A]_H3.3_A3.1_F3.1_T3.2] | 1440
40 | ACAAACGGCUAUAUAUAUAACAAAC (ssRNA) [Id_i_S3_P3E.6_K3.2_C3.3_[T-3G]_[C-2G]_[T-1C]_H3.2_A3.1_F3.1_T3.2] | 1360
41 | ACAAACUCACACUAUAUAACAAAC (ssRNA) [Id_i_S3_P3E.4_K3.3_C3.2_[C-2T]_[T-1C]_H3.3_A3.1_F3.1_T3.2] | > 2300
42 | ACAAACCGGUAUAUAUAUAACAAAC (ssRNA) [Id_i_S3_P3E.6_K3.2_C3.3_[T-3C]_[C-2G]_[T-1G]_H3.2_A3.1_F3.1_T3.2] | 1060
43 | UCUCUUAGCAUAUUAUCUCUU (ssRNA) [Ib_S1_P4E.1_K4.1_C4.1_H4.1_[T1A]_[T3C]_A4.1_F4.1_T4.1] | 1930
44 | UCUCUUCUUAUAUUAUCUCUU (ssRNA) [Ib_S1_P4E.1_K4.1_C4.1_H4.1_[T1C]_[G2T]_A4.1_F4.1_T4.1] | 685
45 | ACAAACAGACACUAUAUAACAAAC (ssRNA) [Id_ii_S3_P3E.4_K3.3_C3.2_[C-2A]_[T-1G]_H3.3_A3.1_F3.1_T3.2] | > 2300
46 | ACAAACAAGUAUAUAUAUAACAAAC (ssRNA) [Id_i_S3_P3E.6_K3.2_C3.3_[T-3A]_[C-2A]_[T-1G]_H3.2_A3.1_F3.1_T3.2] | 316
